Test results reported in patent publication US20090239794A1, “HCV F PROTEIN AND USES THEREOF” (priority 2004, published 2009).

Columns and labels:
[1] = target: Fmut8Δ11 protein (recombinant ARFP, truncated HCV-1a F protein lacking the first 11 N-terminal amino acids) (HCV-1a) (UniProt P0C045); test: ELISA, serum 1/50, day 14
[2] = target: Fmut8Δ11 protein (recombinant ARFP, truncated HCV-1a F protein lacking the first 11 N-terminal amino acids) (HCV-1a) (UniProt P0C045); test: ELISA, serum 1/50, day 29
[3] = target: Fmut8Δ11 protein (recombinant ARFP, truncated HCV-1a F protein lacking the first 11 N-terminal amino acids) (HCV-1a) (UniProt P0C045); test: ELISA, serum 1/50, day 52
[4] = target: Fmut8Δ11 protein (recombinant ARFP, truncated HCV-1a F protein lacking the first 11 N-terminal amino acids) (HCV-1a) (UniProt P0C045); test: ELISA, serum 1/100, day 14
[5] = target: Fmut8Δ11 protein (recombinant ARFP, truncated HCV-1a F protein lacking the first 11 N-terminal amino acids) (HCV-1a) (UniProt P0C045); test: ELISA, serum 1/100, day 29
[6] = target: Fmut8Δ11 protein (recombinant ARFP, truncated HCV-1a F protein lacking the first 11 N-terminal amino acids) (HCV-1a) (UniProt P0C045); test: ELISA, serum 1/100, day 52
[7] = target: Fmut8Δ11 protein (recombinant ARFP, truncated HCV-1a F protein lacking the first 11 N-terminal amino acids) (HCV-1a) (UniProt P0C045); test: ELISA, serum 1/200, day 14
[8] = target: Fmut8Δ11 protein (recombinant ARFP, truncated HCV-1a F protein lacking the first 11 N-terminal amino acids) (HCV-1a) (UniProt P0C045); test: ELISA, serum 1/200, day 29
[9] = target: Fmut8Δ11 protein (recombinant ARFP, truncated HCV-1a F protein lacking the first 11 N-terminal amino acids) (HCV-1a) (UniProt P0C045); test: ELISA, serum 1/200, day 52
[10] = target: Fmut8Δ11 protein (recombinant ARFP, truncated HCV-1a F protein lacking the first 11 N-terminal amino acids) (HCV-1a) (UniProt P0C045); test: ELISA, serum 1/400, day 14
[11] = target: Fmut8Δ11 protein (recombinant ARFP, truncated HCV-1a F protein lacking the first 11 N-terminal amino acids) (HCV-1a) (UniProt P0C045); test: ELISA, serum 1/400, day 29
[12] = target: Fmut8Δ11 protein (recombinant ARFP, truncated HCV-1a F protein lacking the first 11 N-terminal amino acids) (HCV-1a) (UniProt P0C045); test: ELISA, serum 1/400, day 52
[13] = target: Fmut8Δ11 protein (recombinant ARFP, truncated HCV-1a F protein lacking the first 11 N-terminal amino acids) (HCV-1a) (UniProt P0C045); test: ELISA, serum 1/800, day 14
[14] = target: Fmut8Δ11 protein (recombinant ARFP, truncated HCV-1a F protein lacking the first 11 N-terminal amino acids) (HCV-1a) (UniProt P0C045); test: ELISA, serum 1/800, day 29
[15] = target: Fmut8Δ11 protein (recombinant ARFP, truncated HCV-1a F protein lacking the first 11 N-terminal amino acids) (HCV-1a) (UniProt P0C045); test: ELISA, serum 1/800, day 52
[16] = target: Fmut8Δ11 protein (recombinant ARFP, truncated HCV-1a F protein lacking the first 11 N-terminal amino acids) (HCV-1a) (UniProt P0C045); test: ELISA, serum 1/1600, day 14
[17] = target: Fmut8Δ11 protein (recombinant ARFP, truncated HCV-1a F protein lacking the first 11 N-terminal amino acids) (HCV-1a) (UniProt P0C045); test: ELISA, serum 1/1600, day 29
[18] = target: Fmut8Δ11 protein (recombinant ARFP, truncated HCV-1a F protein lacking the first 11 N-terminal amino acids) (HCV-1a) (UniProt P0C045); test: ELISA, serum 1/1600, day 52

Substance | OD410 [1] | OD410 [2] | OD410 [3] | OD410 [4] | OD410 [5] | OD410 [6] | OD410 [7] | OD410 [8] | OD410 [9] | OD410 [10] | OD410 [11] | OD410 [12] | OD410 [13] | OD410 [14] | OD410 [15] | OD410 [16] | OD410 [17] | OD410 [18]
serum of mouse 11, protocol 2, mock immunization (PBS) (antibody) | 0.108 | 0.307 | 0.35 | 0.154 | 0.19 | 0.173 | 0.135 | 0.153 | 0.133 | 0.116 | 0.128 | 0.149 | 0.114 | 0.127 | 0.118 | 0.113 | 0.123 | 0.117
serum of mouse 19, protocol 2, mock immunization (PBS) (antibody) | 0.23 | 0.444 | 0.313 | 0.18 | 0.27 | 0.175 | 0.144 | 0.184 | 0.143 | 0.142 | 0.54 | 0.135 | 0.13 | 0.139 | 0.12 | 0.129 | 0.119 | 0.126
serum of mouse 30, protocol 2, mock immunization (PBS) (antibody) |  | 0.381 | 0.226 |  | 0.224 | 0.148 |  | 0.157 | 0.128 |  | 0.132 | 0.119 |  | 0.126 | 0.113 |  | 0.129 | 0.119
serum of mouse 27, protocol 2, mock immunization (PBS) (antibody) | 0.216 | 0.324 | 0.201 | 0.146 | 0.175 | 0.155 | 0.113 | 0.14 | 0.136 | 0.115 | 0.13 | 0.12 | 0.113 | 0.124 | 0.115 | 0.112 | 0.129 | 0.116
serum of mouse 13, protocol 2, mock immunization (PBS) (antibody) | 0.288 | 0.338 | 0.474 | 0.177 | 0.161 | 0.238 | 0.151 | 0.126 | 0.172 | 0.143 | 0.121 | 0.133 | 0.169 | 0.126 | 0.123 | 0.142 | 0.13 | 0.113
serum of mouse 28, protocol 2, mock immunization (PBS) (antibody) | 0.261 | 0.354 | 0.165 | 0.179 | 0.204 | 0.141 | 0.146 | 0.167 | 0.117 | 0.133 | 0.143 | 0.119 | 0.122 | 0.128 | 0.107 | 0.114 | 0.128 | 0.123
serum of mouse 18, protocol 2, mock immunization (PBS) (antibody) | 0.228 | 0.356 | 0.279 | 0.162 | 0.217 | 0.161 | 0.136 | 0.166 | 0.135 | 0.127 | 0.134 | 0.12 | 0.126 | 0.126 | 0.114 | 0.122 | 0.119 | 0.134
serum of mouse 15, protocol 2, mock immunization (PBS) (antibody) | 0.229 | 0.253 | 0.376 | 0.162 | 0.16 | 0.215 | 0.146 | 0.123 | 0.151 | 0.144 | 0.113 | 0.177 | 0.118 | 0.13 | 0.134 | 0.116 | 0.122 | 0.136
serum of mouse 20, protocol 2, mock immunization (PBS) (antibody) | 0.245 | 0.51 | 0.247 | 0.168 | 0.181 | 0.182 | 0.138 | 0.154 | 0.146 | 0.121 | 0.133 | 0.141 | 0.136 | 0.13 | 0.127 | 0.118 | 0.141 | 0.127
serum of mouse 26, protocol 2, mock immunization (PBS) (antibody) | 0.281 | 0.416 | 0.203 | 0.193 | 0.178 | 0.146 | 0.146 | 0.154 | 0.123 | 0.133 | 0.144 | 0.12 | 0.133 | 0.144 | 0.114 | 0.126 | 0.137 | 0.118
serum of mouse 14, protocol 2, mock immunization (PBS) (antibody) | 0.212 | 0.246 | 0.288 | 0.171 | 0.156 | 0.224 | 0.178 | 0.143 | 0.156 | 0.151 | 0.126 | 0.163 | 0.15 | 0.123 | 0.159 | 0.143 | 0.124 | 0.145
serum of mouse 17, protocol 2, mock immunization (PBS) (antibody) | 0.67 | 0.754 | 0.5 | 0.487 | 0.269 | 0.286 | 0.321 | 0.191 | 0.185 | 0.248 | 0.138 | 0.142 | 0.184 | 0.119 | 0.125 | 0.159 | 0.112 | 0.125
serum of mouse 16, protocol 2, mock immunization (PBS) (antibody) | 0.249 | 0.327 | 0.231 | 0.174 | 0.325 | 0.194 | 0.13 | 0.196 | 0.149 | 0.121 | 0.151 | 0.134 | 0.13 | 0.129 | 0.107 | 0.123 | 0.116 | 0.123
serum of mouse 12, protocol 2, mock immunization (PBS) (antibody) | 0.442 | 0.246 | 0.516 | 0.302 | 0.148 | 0.208 | 0.215 | 0.127 | 0.17 | 0.17 | 0.114 | 0.146 | 0.16 | 0.114 | 0.125 | 0.15 | 0.117 | 0.12
